{"source": "patent US20200377555A1", "binders": {"B1": {"name": "Fab fragment of mAb CR6261 (Fab, V domains shown)", "VH": "EVQLVESGAEVKKPGSSVKVSCKASGGPFRSYAISWVRQAPGQGPEWMGGIIPIFGTTKYAPKFQGRVTITADDFAGTVYMELSSLRSEDTAMYYCAKHMGYQVRETMDVWGKGTTVTVSS", "VL": "QSVLTQPPSVSAAPGQKVTISCSGSSSNIGNDYVSWYQQLPGTAPKLLIYDNNKRPSGIPDRFSGSKSGTSATLGITGLQTGDEANYYCATWDRRPTAYVVFGGGTKLTVLG"}, "B2": {"name": "CR6261 (antibody, V domains shown)", "VH": "B1 VH", "VL": "B1 VL"}, "B3": {"name": "CR9114 (antibody, V domains shown)", "VH": "QVQLVQSGAEVKKPGSSVKVSCKSSGGTSNNYAISWVRQAPGQGLDWMGGISPIFGSTAYAQKFQGRVTISADIFSNTAYMELNSLTSEDTAVYFCARHGNYYYYSGMDVWGQGTTVTVSS", "VL": "SYVLTQPPAVSGTPGQRVTISCSGSDSNIGRRSVNWYQQFPGTAPKLLIYSNDQRPSVVPDRFSGSKSGTSASLAISGLQSEDEAEYYCAAWDDSLKGAVFGGGTQLTVL"}}, "details_in_all_cases": "remark: other sources report otherwise", "key": {"[1]": {"biological_target": "T1, UFV5367 (influenza A H1N1 A/Brisbane/59/07), A8C8J4"}, "[2]": {"biological_target": "Full length HA H1N1 A/Brisbane/59/07 (influenza A H1N1 A/Brisbane/59/07), B4URD6"}, "[3]": {"biological_target": "T1, UFV5367 (influenza A H1N1 …)", "remark": "listed apart in the source"}, "[4]": {"biological_target": "T1, UFV5367 (influenza A H1N1 …)", "test": "ELISA, polypeptide coated, antibody titrated; average of 3 independent assays"}, "[5]": {"biological_target": "UFV180499 H5 A/Hong Kong/156/97 (influenza A H5 A/Hong Kong/156/97)"}}}
{"binder": "B1", "values": [{"measurement": "MW polypeptide + Fab6261 (kDa)", "setting": "[1]", "value": 204, "unit": "kDa"}]}
{"binder": "B2", "values": [{"measurement": "Kd", "setting": "[2]", "value": 1.1, "unit": "nM"}, {"measurement": "Kd", "setting": "[3]", "value": 0.48, "unit": "nM"}, {"measurement": "EC50", "setting": "[4]", "value": 0.417, "unit": "nM"}]}
{"binder": "B3", "values": [{"measurement": "EC50 (read off the curve)", "setting": "[5]", "value": 0.02, "unit": "µg/mL"}]}
